Series [1] has as its target Full length His-tagged S. aureus SPase (S. aureus) (UniProt P0A070). In words: fluorescence binding titration; compound conc. 125 (unit inferred).
For series [2] the target is unchanged. The series is described as follows: fluorescence binding titration; compound conc. 250 (unit inferred).
Series [3] has the same target. In words: fluorescence binding titration; compound conc. 500 (unit inferred).
Series [4] has the same target. In words: fluorescence binding titration; compound conc. 1000 (unit inferred).
Series [5] shares this target. In words: fluorescence binding titration; compound conc. 2000 (unit inferred).
Series [6] shares this target. In words: fluorescence binding titration; compound conc. 4000 (unit inferred).
Series [7] has the same target. The series is described as follows: fluorescence binding titration; compound conc. 62.5 (unit inferred).
Series [8] shares this target. The series is described as follows: fluorescence binding titration; compound conc. 8000 (unit inferred).
Series [9] shares this target. In words: fluorescence binding titration; compound conc. 31.25 (unit inferred).
Series [10] has as its target Full length His-tagged E. coli SPase (E. coli) (UniProt P00803). The series is described as follows: fluorescence binding titration; compound conc. 0.E+00 (unit inferred).
The target is the same in series [11]. The series is described as follows: fluorescence binding titration; compound conc. 1.E+02 (unit inferred).
For series [12] the target is unchanged. In words: fluorescence binding titration; compound conc. 1.E+03 (unit inferred).
Series [13] has as its target Full length His-tagged S. aureus SPase (S. aureus) (UniProt P0A070). In words: fluorescence binding titration; compound conc. 15.625 (unit inferred).
Series [14] deals with Full length His-tagged E. coli SPase (E. coli) (UniProt P00803). In words: fluorescence binding titration; compound conc. 2.E+01 (unit inferred).
Sequence of Full length His-tagged E. coli SPase (E. coli) (P00803 whole entry): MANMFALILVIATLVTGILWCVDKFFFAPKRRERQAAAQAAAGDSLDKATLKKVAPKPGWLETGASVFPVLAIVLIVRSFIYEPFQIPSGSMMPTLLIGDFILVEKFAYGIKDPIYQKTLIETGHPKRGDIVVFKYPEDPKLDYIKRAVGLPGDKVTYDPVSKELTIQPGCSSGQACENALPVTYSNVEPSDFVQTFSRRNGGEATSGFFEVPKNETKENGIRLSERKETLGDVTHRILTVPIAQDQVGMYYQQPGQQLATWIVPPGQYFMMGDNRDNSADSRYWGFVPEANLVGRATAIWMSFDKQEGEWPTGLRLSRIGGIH
The target is the same in series [15]. The series is described as follows: fluorescence binding titration; compound conc. 2.E+03 (unit inferred).
Series [16] has the same target. In words: fluorescence binding titration; compound conc. 3.E+01 (unit inferred).
Series [17] shares this target. The series is described as follows: fluorescence binding titration; compound conc. 3.E+02 (unit inferred).
Series [18] shares this target. In words: fluorescence binding titration; compound conc. 4.E+03 (unit inferred).
Series [19] shares this target. In words: fluorescence binding titration; compound conc. 5.E+02 (unit inferred).
The target is the same in series [20]. In words: fluorescence binding titration; compound conc. 6.E+01 (unit inferred).
The target is the same in series [21]. In words: fluorescence binding titration; compound conc. 8.E+00 (unit inferred).
In series [22] the target is T1, decanoyl-LSSPA Y^NO2 A ADK^abzPD (SEQ ID NO: 1).
T1 chain: LSSPAYAADKPD

Series [23] deals with T2, decanyol-LTPTAY^NO2 A ASKK^abzDD (SEQ ID NO: 2).
T2 chain: LTPTAYAASKKDD

As to Compound 1 (arylomycin C16) (peptide), the % Comp calc in [1] is 14%; in [2], 25.4%; in series [3] it was 42%; in series [4], 61.1%; in [5] it was 77.1%; in [6], 87.6%. Besides, the % Comp calc in series [7] is 7.4%; in series [8], 93.6%; in [9], 3.8%; in series [10], 0%; in series [11], 71%; in series [12], 96%. The % Comp calc is 1.9% in series [13]; 17% in series [14]; 98% in series [15]; 31% in series [16]; 85% in series [17]; 99% in series [18]. Moreover, the % Comp calc is 92% in series [19], 51% in series [20] and 9% in [21]. Also, the % Comp obs in series [1] was determined as 13.7%; in series [2] it was 25.6%; in series [3] it was 38.6%; in series [4], 59.1%; in series [5] it was 86.1%; in [6], 87.3%. Also, the % Comp obs was 6.4% in series [7]; 87.8% in series [8]; 4.9% in series [9]; -1% in series [10]; 69% in [11]; 98% in [12]. The % Comp obs in series [13] is 1.7%; in series [14], 16%; in series [15], 102%; in series [16] it was 32%; in series [17], 81%; in series [18] it was 95%. The % Comp obs in [19] is 92%; in series [20], 53%; in [21], 10%.

B1: Full length His-tagged S. aureus SPase (protein)
chain: MKKELLEWIISIAVAFVILFIVGKFIVTSYTIKGESMDPTLKDGERVAVNIIGYKTGGLEKGNVVVFHANKNDDYVKRVIGVPGDKVEYKNDTLYVNGKKQDEPYLNYNLKHKQGDYITGTFQVKDLPNANPKSNVIPKGKYLVLGDNREVSKDSRAFGLIDEDQIVGKVSFRFWPFSEFKHNFNPENTKN
For B1, the “second order rate constant (Kcat/KM) of substrate cleavage” value in [22] and in series [23] was 10^5 M^-1s^-1 throughout.
